# T1: Aktide biosensor RRRRRSVDSHGGKbiotinGG (SEQ ID NO:11)
# T1 sequence: RRRRRSVDSHGGKGG
# T2: candidate biosensor peptide substrate WHLQTWCGYGGKbiotinGG (SEQ ID NO:12)
# T2 chain: WHLQTWCGYGGKGG
# What was measured:
# [1] = system: T1, Aktide biosensor RRRRRSVDSHGGKbiotinGG (SEQ ID NO:11)
# [2] = target: T2, candidate biosensor peptide substrate …
# [3] = target: the other five peptides (of six candidate biosensors peptides screened with LKB1)
molecule,measurement,setting,value
Akt serine/threonine kinase (protein kinase B),"phosphorylation of the peptide in a time-course in vitro kinase assay (MALDI/TOF/TOF-MS; 0, 30, 60, 120 min)",[1],Nearly complete conversion to phosphorylated product was observed after 2 hr.
same,phosphorylation of the peptide in an in vitro kinase assay (MALDI/TOF/TOF-MS),[1],this peptide sequence is able to be efficiently phosphorylated by Akt over a 2 hr kinase assay
LKB1 serine/threonine kinase (Liver Kinase B1) (protein) MEVVDPQQLGMFTEGELMSVGMDTFIHRIDSTEVIYQPRRKRAKLIGKYLMGDLLGEGSYGKVKEVLDSETLCRRAVKILKKKKLRRIPNGEANVKKEIQLLRRLRHKNVIQLVDVLYNEEKQKMYMVMEYCVCGMQEMLDSVPEKRFPVCQAHGYFCQLIDGLEYLHSQGIVHKDIKPGNLLLTTGGTLKISDLGVAEALHPFAADDTCRTSQGSPAFQPPEIANGLDTFSGFKVDIWSAGVTLYNITTGLYPFEGDNIYKLFENIGKGSYAIPGDCGPPLSDLLKGMLEYEPAKRFSIRQIRQHSWFRKKHPPAEAPVPIPPSPDTKDRWRSMTVVPYLEDLHGADEDEDLFDIEDDIIYTQDFTVPGQVPEEEASHNGQRRGLPKAVCMNGTEAAQLSTKSRAEGRAPNPARKACSASSKIRRLSACKQQ,phosphorylation of the peptide in an in vitro kinase assay (LC ESI-MS),[2],this initial peptide sequence is able to be partially phosphorylated by LKB1 after a 3 hr reaction
same,phosphorylation of the peptide in an in vitro kinase assay screen with LKB1,[3],"Out of these six, one sequence, WHLQTWCGYGGKbiotinGG (SEQ ID NO:12), was shown to be partially phosphorylated by LKB1 after a 3 hr reaction."

# From patent publication US20180282372
